Residue numbers refer to the chain shown, from its start.
What was measured:
[1] = target: T1, mouse VISTA recombinant protein (Sino Biological Inc., Cat. #51550-M08H), biotinylated (mouse, UniProt Q9D659 33-191, biotinylated using EZ-LINK NHS-PEG4 biotin); experiment: BLI (Octet QKe), biotinylated VISTA on streptavidin sensors; the parental antibody is the affinity comparator
T1 construct: Bought protein; also called mouse VISTA protein
T1 sequence (looked up): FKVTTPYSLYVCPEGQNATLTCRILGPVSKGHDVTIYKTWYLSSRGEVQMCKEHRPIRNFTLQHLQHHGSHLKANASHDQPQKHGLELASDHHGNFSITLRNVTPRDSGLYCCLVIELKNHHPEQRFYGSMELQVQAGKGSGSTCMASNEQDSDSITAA
Description: (§1) Method: The binding affinity of anti-VISTA antibodies was determined with bio-layer interferometry using Octet QKe (ForteBio). Human VISTA recombinant protein (Sino Biological Inc., Cat. #13482-H08H) mouse VISTA (Sino Biological Inc., Cat. #51550-M08H) were biotinylated using EZ-LINK NHS-PEG4 biotin (Thermo Fisher Scientific). Streptavidin biosensors (ForteBio) were used to load biotinylated VISTA protein (300 seconds at 5 μg/ml). The baseline measurement was stabilized for 60 seconds in 1× kinetics buffer (ForteBio) before anti-VISTA antibodies at 5 μg/ml were allowed to associate for 300 seconds with captured protein. Then the sensors were dissociated in 1× kinetics buffer for 600 seconds. Data analysis was performed on ForteBio Data Analysis HT 11.1 software.

[2] = target: T2, mouse VISTA expressed on Jurkat cells (mouse, UniProt Q9D659 33-308); experiment: flow cytometry on Jurkat cells expressing mouse VISTA (FIG. 3A-D); the parental antibody is the binding comparator
T2 construct: whole, on cells; also called Jurkat-mouse VISTA; mouse VISTA expressing cells
T2 sequence (looked up): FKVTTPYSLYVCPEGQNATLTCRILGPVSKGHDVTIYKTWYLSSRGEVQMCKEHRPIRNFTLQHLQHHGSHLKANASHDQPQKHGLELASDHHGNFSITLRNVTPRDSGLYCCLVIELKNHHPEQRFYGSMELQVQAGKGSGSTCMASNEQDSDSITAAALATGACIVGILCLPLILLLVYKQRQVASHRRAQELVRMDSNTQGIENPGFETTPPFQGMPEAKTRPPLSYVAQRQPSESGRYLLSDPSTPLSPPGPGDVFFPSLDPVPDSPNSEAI

[3] = target: T3, Human VISTA recombinant protein (Sino Biological Inc., Cat. #13482-H08H), biotinylated (human, UniProt Q9H7M9 33-194, biotinylated using EZ-LINK NHS-PEG4 biotin); experiment: BLI (Octet QKe), biotinylated VISTA on streptavidin sensors, antibody at 5 µg/ml
T3 construct: Bought protein
T3 sequence: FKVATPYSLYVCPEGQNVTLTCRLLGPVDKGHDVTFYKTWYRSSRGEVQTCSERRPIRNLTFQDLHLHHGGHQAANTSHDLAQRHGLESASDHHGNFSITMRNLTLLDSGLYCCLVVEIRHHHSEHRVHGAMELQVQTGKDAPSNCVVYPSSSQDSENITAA
Description: as §1

[4] = target: T1, mouse VISTA recombinant protein (Sino …); experiment: as above
Description: as §1

[5] = target: T2, mouse VISTA expressed on Jurkat cells; experiment: flow cytometry on Jurkat cells expressing mouse VISTA (FIG. 3E)

B1: 9F9 parental anti-VISTA antibody (VH0/VL0) (antibody, V domains shown)
VH: QVQFQQSGAELARPGASVKLSCKASGYTFTGYWMQWVKQRPGQGLEWIGAIYPGDGDTRYSQKFKGKVTLTADKSSSTAYMQLSSLASEDSAVYYCARRDYGAWFAYWGQGTLVTVSA
VL: DIKVTQSPSSMYASLGERVTITCKASQDINSYLSWFQQKPGKSPKTLIYRANRLVDGVPSRFSGSGSGQDYSLTISSLDYEDMGIYYCLQYDEFPYTFGGGTKLEIK
notes: also called 9E9 parental antibody; parental 9F9 (VH0/VL0)
[1]
  binding result: binds
[2]
  binding result: binds
[3]
  binding result: binds

B2: 9F9 humanized anti-VISTA antibody VH14/VL15 (antibody, V domains shown)
VH: QVQLVQSGAEVMKPGASVKISCKASGYTFTGYWMQWVRQRPGQGLEWIGAIYPGDGDTRYSQKFKGKATMTADTSISTAYMELSRLRSDDTAVYYCARRDYGAWFAYWGAGTTVTVSS
VL: DIVMTQSPSSLSASVGERVTITCKASQDINSYLSWFQQKPGKAPKTLIYRANRLVDGVPSRFSGSGSGTDFTFTISSVQPEDLAIYYCLQYDEFPYTFGGGTKLEIK
notes: also called 9E9 anti-VISTA VH14/VL15
[4]
  binding result: binds

B3: 9F9 VH15/VL15 hIgG2 (antibody, V domains shown)
VH: B2 VH with I20L, R38K, T91S
VL: B2 VL
notes: also called 9E9 VH15/VL15 using the IgG2 constant region
[5]
  binding result: binds

B4: 9F9 VH15/VL15 hIgG1-LALA (antibody, V domains shown)
VH: B2 VH with I20L, R38K, T91S
VL: B2 VL
notes: also called 9E9 VH15/VL15 using the humanized hIgG1-LALA constant region
[5]
  binding result: binds

B5: 9F9 humanized anti-VISTA antibody VH15/VL15 (antibody, V domains shown)
VH: B2 VH with I20L, R38K, T91S
VL: B2 VL
notes: also called 9E9 anti-VISTA VH15/VL15
[4]
  binding result: binds

B6: 9F9 humanized anti-VISTA antibody VH7/VL7 (antibody, V domains shown)
VH: QVQFVQSGAEVKKPGASVKVSCKASGYTFTGYWMQWVKQAPGQRLEWIGAIYPGDGDTRYSQKFKGKVTLTADTSASTAYMELSSLRSEDTAVYYCARRDYGAWFAYWGQGTLVTVSS
VL: DIKVTQSPSSLSASVGDRVTITCKASQDINSYLSWYQQKPGKAPKTLIYRANRLVDGVPSRFSGSGSGQEYTLTISSLQPEDFATYYCLQYDEFPYTFGQGTKVEIK
notes: also called 9E9 anti-VISTA VH7/VL7
[4]
  binding result: binds

B7: 9F9 humanized anti-VISTA antibody VH9/VL9 (antibody, V domains shown)
VH: B6 VH with A16S, T30S, R44G, T74E, A76T
VL: B6 VL with E70D, L73F, F83I
notes: also called 9E9 anti-VISTA VH9/VL9
[4]
  binding result: binds
